According to US7407783B2, “Fructosylamine oxidase” (priority 2002, dated 2008):
Entries after “also recorded” stand apart in the source; their conditions may differ.

Legend:
FAO-Q2 = assay: Substrate specificity of FAO-Q2 (FAO activity, rate method, H2O2 colorimetry); assay type: biochemical, Fusarium proliferatum; conditions: for Relative activity (%) FAO-Q2: activity of FAO-Q2 on the substrate, FV = 100
Procedure: (§1) Titration of enzyme can be performed by a method known in the art (e.g., kinetic method), for example, that described in Example 1 (3). In this method, hydrogen peroxide generated by the reaction of an FAO with a glycated amino acid or peptide is measured on the basis of absorbance (505 nm) of quinone pigment produced in the presence of hydrogen peroxide. The amount (μmole) of hydrogen peroxide generated per minute is calculated on the basis of molar absorptivity (5.16×10^3 M^−1 cm^−1) of quinone pigment and the resultant numerical value is taken as a unit (U) of enzyme activity.
(§2) FAO activity of the crude enzyme solution was determined by the aforementioned rate method. The time-course of generation of hydrogen peroxide in the reaction mixture below was measured by a colorimetric method, and FAO activity was evaluated.
(§3) A mixture (total 3 ml) except for the enzyme solution was equilibrated at 30° C. After adding the enzyme solution, the time-course of absorbance at 505 nm was measured. The amount (μmole) of hydrogen peroxide generated per minute was calculated on the basis of molar absorptivity (5.16×10^3 M^−1 cm^−1) of quinone pigment produced, and the resultant numerical value was taken as a unit(U) of enzyme activity. As a result, a strain having FAO was obtained.
The substrate specificity of the enzymes (FAO-Q1, FAO-Q2) contained in 2 fractions separated in (1), 3) above was determined. The FAO activity was measured using the respective two fractions as an enzyme solution according to the method described in Example 1(3). As a substrate, FV, FVH, FVHL, FVL, FVLS and FZL were used.

FAO-Q1 = FAO-Q1 (Fusarium proliferatum, UniProt A0A1L7VP54); assay: Substrate specificity of FAO-Q1 (FAO activity, rate method, H2O2 colorimetry); assay type: biochemical
Procedure: as §1, §2
as §3, with “As a result, a strain having FAO was obtained.” left out
The substrate specificity of the enzymes (FAO-Q1, FAO-Q2) contained in 2 fractions separated in (1), 3) above was determined. […]

[1] = tested on: O=C(N[C@@H](CCCCNCC1(O)OC[C@@H](O)[C@@H](O)[C@@H]1O)C(=O)O)OCc1ccccc1; assay: cells, lysate or membranes named; conditions: other: substrate FV or FZL; 30.0 °C
From the text: Michaelis constant for respective substrates can be determined by measuring the initial reaction rate in the process for determination of titer as described above while keeping the conditions regarding enzyme concentration, pH, temperature, and the like constant and changing only the concentration of substrate.

[2] = tested on: CC(C)[C@H](NCC1(O)OC[C@@H](O)[C@@H](O)[C@@H]1O)C(=O)O; assay: cells, lysate or membranes named; conditions: other: substrate FV or FZL; 30.0 °C
[3] = Determination of optimum temperature for stability of enzyme; assay type: physicochemical, Fusarium proliferatum; conditions: incubated in 0.1 M Tris-HCl buffer (pH 8.0) at 30-65° C. for 10 minutes
Procedure: Temperature conditions for the enzyme were determined by incubating FAO-Q1 or FAO-Q2 in 0.1 M Tris-HCl buffer (pH 8.0) at a temperature between 30 and 65° C. for 10 minutes, and measuring the activity under normal conditions.

[4] = FAO activity of Resource Q fractions using FV as a substrate; assay type: biochemical, Fusarium proliferatum; conditions: Resource Q fraction
Procedure: as §2, §3
The ammonium sulfate fraction after dialysis was subjected to chromatography under the following conditions.
Measurement of activity was performed in a similar manner to that described in Example 1 (3). FAOs contained in these fractions are herein referred to as “FAO-Q1” and “FAO-Q2”.

[5] = Determination of optimum pH of the enzyme reaction; assay type: biochemical, Fusarium proliferatum; conditions: pH 3.5-10.0 tested, at 30° C.
Procedure: Enzyme reaction was conducted under different pH conditions between 3.5 and 10.0 according to the method for determination of activity as described above.
The buffers used were 100 mM acetate buffer at pH range of 3.5-6.0, 100 mM potassium phosphate buffer at pH range of 6.0-8.0, 100 mM Tris-HCl buffer (pH range of 7.0-9.0) and 100 mM glycin-NaOH buffer at pH range of 9.0-10.0.

Molecule | Activity of FAO-Q2 on the substrate (in words) (FAO-Q2) | Relative activity (%) FAO-Q2 (FAO-Q2) | Optimum temperature for stability of enzyme [3] | specific activity(U/mg) [4] | Optimum pH for enzyme reaction [5] | further results
O=C(N[C@@H](CCCCNCC1(O)OC[C@@H](O)[C@@H](O)[C@@H]1O)C(=O)O)OCc1ccccc1 (stereo partly shown) [FZL] | inactive and not | – | – | – | – | Activity of FAO-Q1 on the substrate (in words) (FAO-Q1): almost equally active; also recorded: almost the same activity; Relative activity (%) FAO-Q1 (FAO-Q1; activity of FAO-Q1 on the substrate, FV = 100): 108%
FAO-Q1 (Fusarium proliferatum ET1) | – | – | – | – | – | Km [1]: 560 µM; Km [2]: 620 µM
fructosyl valine-histidine-leucine (VHL) [FVHL] | active | 0.6% | – | – | – | –
fructosyl valine-leucine-serine (VLS) [FVLS] | – | 3.3% | – | – | – | –
FAO-Q2: fructosylamine oxidase from Fusarium proliferatum GL2-1, Resource Q fraction Q2; amino acid sequence SEQ ID NO: 6 (protein, listed as Fusarium proliferatum) MARTVAPLNKDSGILIVGGGTWGCSTALHLARRGYTNVTVLDVNRIPSPISAGHDVNKLSNRLGTSDSKGDDEDSIWKALTYAAAQGWLHDPIFQPFCHNTGAVMAGSTPKSIKQLVEDEIGDDIDQYTPLNTAEDFRRTMPERILTGDFLGWKGFYKPRGSGWVHARKAMKAAFEESQRLGVKFITGSPEGKVESLVFEAGDVKGAKTADGKEHRADRTILSAGASAEFSLDFENQIRPTAWTLGHIQMTAEETKLYKELPPLFNINQGFFMEPDEDLHQLKMCDEHPGYCNWVDKPGSKYPQSIPFAKYQVPIEAERRMKQFLKDIMPQLADRPLVHARICWCADTQDRMFLITYHPRHPSLVIASGDCGTGYKHITSIGKFISDCMEGTLEERFAKFWRWRPEKFTEFWGKDPLDRFGADDKIMDLPKSDAEGWTDIQNDK | – | – | 30-40 °C | 0.067 U/mg | about 7.0 | Optimum pH for enzyme reaction ([5]; listed as FAO-O2): 7
FAO-Q1: fructosylamine oxidase from Fusarium proliferatum GL2-1, Resource Q fraction Q1; amino acid sequence SEQ ID NO: 4 (protein, listed as Fusarium proliferatum) MAGPPSSILIVGSGVFGLGTAWALAKRSHFSNTSITVVDDCAGQFPPEDAASVDSSRIVRADYSDPYYAALAAEAQKEWRKQGDHEVGGQGRYSESGFVLCASETPEDFKLKKSGMDYTKESAKNVELIAKETGLPVDKIQKLESTKALQEFLGTDGYPGDWGYLNGNSGWADAGEGMKWLYKQAQATGRIHFVNGKVTELVTEGDRVIGAKLSDSKILKADVVMVAAGAWSGSLVDLRGRTEATGHAVAYMDITPEEQKRLDNFPVVLNLSTGLFLIPPRNNVLKAARHTFGYINPVKINNALPPSPNDKREPFIASQPYTSRNDSSNPLTVEADKDLRRALTDLCPIRGLETRPWKEARICWYSDTRDGEWLIDYHPGWKGLFVATGDSGHGFKFLPNLGEKIVDVMQGQGGKLGEKWRWKEIQNDGVGRETNGVYTGLVTEDGSRGGRPLVLCDELEKGRALIGNTKAKL | – | – | 30-40 °C | 0.3 U/mg | about 7.5 | Optimum pH for enzyme reaction ([5]; listed as FAO-O 1): 7.5
